According to US20220185894A1 (F STAR THERAPEUTICS, published 2022):

Columns and labels:
[1] = target: T1, human FcγRIIIa (R&D Systems, 4325-FC) (human, UniProt P08637 17-208); test: SPR, Biacore T200; FcγR immobilised, 200 µg/ml injected
T1 construct: Bought recombinant protein
Experimental: (§1) The introduction of the LALA mutation in the CH2 domain of human IgG1 is known to reduce Fc γ receptor binding (Bruhns, P., et al. (2009); and Xu, D. et al. (2000)). […] The human FcγR binding assay was performed on a Biacore T200 instrument (GE Healthcare) using the Fcabs in the mock mAb² format. […] For each immobilized chip a flow cell was left blank for background subtraction. FcγR were immobilized using a concentration of 5 μg/ml in sodium acetate pH5 (ForteBio, 18-1069) and injected at a flow rate of 10 μl/min in 15 second cycles until the required immobilization level was reached.
(§2) The flow cells were regenerated by injecting 10 mM sodium hydroxide (VWR, 28244.262) at a flow rate of 100 μl/min for 30 seconds. The data analysis was performed with BiaEvaluation software version 3.2 RC1 by double referencing against the blank flow cell (without immobilized FcγR) and subtracting a buffer cycle from test mAb².

[2] = target: T2, human FcγRI (R&D Systems, 1257-FC) (human, UniProt P12314 16-288); test: as above
T2 construct: Bought recombinant protein
T2 sequence (P12314 16-288 limits assumed): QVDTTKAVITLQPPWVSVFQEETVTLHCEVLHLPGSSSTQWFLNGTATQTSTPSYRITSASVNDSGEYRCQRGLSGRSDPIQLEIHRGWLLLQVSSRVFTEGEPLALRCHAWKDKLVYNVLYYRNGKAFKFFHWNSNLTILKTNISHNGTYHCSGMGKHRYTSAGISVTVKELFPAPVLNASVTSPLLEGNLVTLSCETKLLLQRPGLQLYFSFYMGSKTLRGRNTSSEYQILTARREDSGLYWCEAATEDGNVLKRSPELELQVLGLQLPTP
Experimental: as §1, §2

[3] = target: T3, human FcγRIIa (R&D Systems, 1330-CD) (human, UniProt P12318 36-218, limits assumed); test: SPR, Biacore T200; FcγR immobilised, 500 µg/ml injected
T3 construct: Bought recombinant protein
T3 sequence (looked up): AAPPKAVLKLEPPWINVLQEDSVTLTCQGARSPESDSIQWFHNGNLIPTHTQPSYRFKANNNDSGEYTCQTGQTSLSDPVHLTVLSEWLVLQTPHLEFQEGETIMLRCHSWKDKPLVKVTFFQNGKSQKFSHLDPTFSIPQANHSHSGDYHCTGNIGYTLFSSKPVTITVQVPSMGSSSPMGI
Experimental: as §1, §2

[4] = target: T4, human FcγRIIb/c (R&D Systems, 1875-CD) (human, UniProt P31994 46-217); test: as above
T4 construct: Bought recombinant protein
T4 sequence (looked up): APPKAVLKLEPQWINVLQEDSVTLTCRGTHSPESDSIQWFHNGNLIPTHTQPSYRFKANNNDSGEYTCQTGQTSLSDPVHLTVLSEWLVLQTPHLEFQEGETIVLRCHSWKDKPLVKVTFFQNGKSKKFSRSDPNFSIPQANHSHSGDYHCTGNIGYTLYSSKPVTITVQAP
Experimental: as §1, §2

[5] = target: T5, mouse LAG-3 expressed on cells (mouse, UniProt Q61790 24-521); test: flow cytometry on HEK cells expressing mouse LAG-3
T5 construct: also called mLAG-3; murine LAG-3 HEK
T5 sequence: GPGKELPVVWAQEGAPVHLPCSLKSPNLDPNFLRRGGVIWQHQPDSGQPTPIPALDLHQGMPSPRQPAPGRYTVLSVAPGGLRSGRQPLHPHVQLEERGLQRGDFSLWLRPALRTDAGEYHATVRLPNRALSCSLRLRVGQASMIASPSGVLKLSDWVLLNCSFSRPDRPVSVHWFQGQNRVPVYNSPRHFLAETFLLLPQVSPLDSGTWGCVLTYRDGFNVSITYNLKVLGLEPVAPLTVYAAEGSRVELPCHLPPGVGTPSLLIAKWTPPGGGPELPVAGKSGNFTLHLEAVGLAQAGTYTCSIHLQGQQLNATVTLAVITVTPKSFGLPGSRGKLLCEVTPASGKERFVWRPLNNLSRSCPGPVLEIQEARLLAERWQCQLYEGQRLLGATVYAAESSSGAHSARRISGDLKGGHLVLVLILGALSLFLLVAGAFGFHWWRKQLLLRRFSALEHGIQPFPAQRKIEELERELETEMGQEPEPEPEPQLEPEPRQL
Experimental: HEK cells expressing mLAG-3 grown in DMEM (Life Technologies, 61965-026) containing 10% FBS (Life Technologies, 10270-1-6), 100 μg/ml Hygromycin B (Melford Laboratories Ltd, Z2475), 15 μg/ml Blasticidin (Melford Laboratories Ltd, B1105) and 1 μg/ml Doxycyclin (Sigma, D9891) were detached from tissue culture flasks using cell dissociation buffer (Life Technologies, 13151-014). Cells were collected by centrifuged at 1500 rpm for 3 min at 4° C. to pellet the cells and then resuspended in 1×DPBS then seeded in V-bottom 96-well plates (Costar, 3897) at 1.2×10⁵ cells/well in 30 μl. A 1:1 volume of a dilution series of the mAb² (or control mAb) was added and incubated with the cells for 1 h at 4° C. The plates were washed and secondary antibody (Anti-human Fc-488, Jackson ImmunoResearch, 109-546-098) was diluted 1:1000 in PBS and 60 μl was added to the cells for 30 min at 4° C. (plates were kept in the dark). The plates were then washed and the cells resuspended in 60 μl PBS containing 1 μg/ml DAPI (Biotium, 40043). The plates were read using Canto II flow cytometer (BD Bioscience). Dead cells were excluded and the fluorescence in the FITC channel (488 nm/530/30) was measured. The data was fitted using log (agonist) vs response in GraphPad Prism Software.

[6] = target: T6, cynomolgus LAG-3 expressed on cells (cynomolgus monkey, UniProt P18627 24-525 (human entry)); test: flow cytometry on DO11.10 cells expressing cynomolgus LAG-3
T6 construct: also called cLAG-3; cyno LAG-3
T6 chain: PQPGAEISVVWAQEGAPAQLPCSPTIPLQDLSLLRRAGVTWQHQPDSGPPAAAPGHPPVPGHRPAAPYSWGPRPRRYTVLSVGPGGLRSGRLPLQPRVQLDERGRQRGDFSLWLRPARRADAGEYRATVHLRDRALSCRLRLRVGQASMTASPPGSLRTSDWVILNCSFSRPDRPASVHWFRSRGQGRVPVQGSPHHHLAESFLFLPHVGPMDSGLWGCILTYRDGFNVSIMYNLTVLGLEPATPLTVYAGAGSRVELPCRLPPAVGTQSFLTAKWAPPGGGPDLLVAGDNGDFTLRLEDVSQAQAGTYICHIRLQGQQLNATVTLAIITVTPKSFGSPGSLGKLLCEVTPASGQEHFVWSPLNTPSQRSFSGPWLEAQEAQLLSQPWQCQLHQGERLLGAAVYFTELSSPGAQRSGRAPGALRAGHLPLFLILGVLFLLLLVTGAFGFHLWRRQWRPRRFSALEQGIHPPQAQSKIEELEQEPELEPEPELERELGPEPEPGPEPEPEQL
Experimental: DO11.10:LAG-3 cell suspensions were prepared in PBS+2% BSA (Sigma, A7906) and seeded at […] with 50 μl/well in V-bottomed 96-well plates (Costar, 3897). […] The plates were washed and 100 μl/well of secondary antibody (anti-human Fc-488 antibody, Jackson ImmunoResearch, 109-546-098) diluted 1:1000 in PBS+2% BSA was then added and incubated for 30 mins at 4° C. in the dark. The plates were washed and resuspended in 100 μl of PBS containing DAPI (Biotium, 40043) at […]. The plates were read using Canto II flow cytometer (BD Bioscience). The dead cells were excluded and the fluorescence in the FITC channel (488 nm/530/30) was measured. The data was fit using log (agonist) vs response in GraphPad Prism Software.

T1 sequence (P08637 17-208 limits assumed): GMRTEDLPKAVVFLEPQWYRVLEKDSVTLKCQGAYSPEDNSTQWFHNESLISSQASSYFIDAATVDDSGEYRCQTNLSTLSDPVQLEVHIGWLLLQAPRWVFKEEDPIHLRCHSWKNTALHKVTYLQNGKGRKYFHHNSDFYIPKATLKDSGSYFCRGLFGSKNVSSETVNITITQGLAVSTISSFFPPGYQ

Binder | binding response at end of association (RU) [1] | binding response at end of association (RU) [2] | binding response at end of association (RU) [3] | binding response at end of association (RU) [4] | EC50 [5] | EC50 [6] | binding result [5]
anti-human LAG-3/FITC mock mAb2 FS18-7-9/4420 comprising LALA mutation (bispecific antibody, human IgG1, kappa, L234A L235A, Human IgG1 format; also called FS18-7-9/4420LALA; FS18-7-09/4420LALA) heavy: EVKLDETGGGLVQPGRPMKLSCVASGFTFSDYWMNWVRQSPEKGLEWVAQIRNKPYNYETYYSDSVKGRFTISRDDSKSSVYLQMNNLRVEDMGIYYCTGSYYGMDYWGQGTSVTVSSASTKGPSVFPLAPSSKSTSGGTAALGCLVKDYFPEPVTVSWNSGALTSGVHTFPAVLQSSGLYSLSSVVTVPSSSLGTQTYICNVNHKPSNTKVDKKVEPKSCDKTHTCPPCPAPEAAGGPSVFLFPPKPKDTLMISRTPEVTCVVVDVSHEDPEVKFNWYVDGVEVHNAKTKPREEQYNSTYRVVSVLTVLHQDWLNGKEYKCKVSNKALPAPIEKTISKAKGQPREPQVYTLPPSWDEPWGEDVSLTCLVKGFYPSDIAVEWESNGQPENNYKTTPPVLDSDGSFFLYSKLTVPYDRWVWPDEFSCSVMHEALHNHYTQKSLSLSPG light: DVVMTQTPLSLPVSLGDQASISCRSSQSLVHSNGNTYLRWYLQKPGQSPKVLIYKVSNRFSGVPDRFSGSGSGTDFTLKISRVEAEDLGVYFCSQSTHVPWTFGGGTKLEIKRTVAAPSVFIFPPSDEQLKSGTASVVCLLNNFYPREAKVQWKVDNALQSGNSQESVTEQDSKDSTYSLSSTLTLSKADYEKHKVYACEVTHQGLSSPVTKSFNRGEC | 6.6 RU | 1.4 RU | -9.8 RU | -8.5 RU | 19 nM | 0.6 nM | 
anti-human LAG-3/FITC mock mAb2 FS18-7-78/4420 comprising LALA mutation (bispecific antibody, human IgG1, kappa, L234A L235A, also called FS18-7-78/4420LALA; FS18-7-78 in mock mAb2 format) heavy: EVKLDETGGGLVQPGRPMKLSCVASGFTFSDYWMNWVRQSPEKGLEWVAQIRNKPYNYETYYSDSVKGRFTISRDDSKSSVYLQMNNLRVEDMGIYYCTGSYYGMDYWGQGTSVTVSSASTKGPSVFPLAPSSKSTSGGTAALGCLVKDYFPEPVTVSWNSGALTSGVHTFPAVLQSSGLYSLSSVVTVPSSSLGTQTYICNVNHKPSNTKVDKKVEPKSCDKTHTCPPCPAPEAAGGPSVFLFPPKPKDTLMISRTPEVTCVVVDVSHEDPEVKFNWYVDGVEVHNAKTKPREEQYNSTYRVVSVLTVLHQDWLNGKEYKCKVSNKALPAPIEKTISKAKGQPREPQVYTLPPSWDEPWGEDVSLTCLVKGFYPSDIAVEWESNGYKEENYKTTPPVLDSDGSFFLYSKLTVPYDRWVWPDEFSCSVMHEALHNHYTQKSLSLSPG light: DVVMTQTPLSLPVSLGDQASISCRSSQSLVHSNGNTYLRWYLQKPGQSPKVLIYKVSNRFSGVPDRFSGSGSGTDFTLKISRVEAEDLGVYFCSQSTHVPWTFGGGTKLEIKRTVAAPSVFIFPPSDEQLKSGTASVVCLLNNFYPREAKVQWKVDNALQSGNSQESVTEQDSKDSTYSLSSTLTLSKADYEKHKVYACEVTHQGLSSPVTKSFNRGEC |  | -0.3 RU | -10.7 RU | -9.2 RU |  | 0.5 nM | 
anti-human LAG-3/FITC mock mAb2 FS18-7-62/4420 comprising LALA mutation (bispecific antibody, human IgG1, kappa, L234A L235A, also called FS18-7-62/4420LALA; FS18-7-62 in mock mAb2 format) heavy: EVKLDETGGGLVQPGRPMKLSCVASGFTFSDYWMNWVRQSPEKGLEWVAQIRNKPYNYETYYSDSVKGRFTISRDDSKSSVYLQMNNLRVEDMGIYYCTGSYYGMDYWGQGTSVTVSSASTKGPSVFPLAPSSKSTSGGTAALGCLVKDYFPEPVTVSWNSGALTSGVHTFPAVLQSSGLYSLSSVVTVPSSSLGTQTYICNVNHKPSNTKVDKKVEPKSCDKTHTCPPCPAPEAAGGPSVFLFPPKPKDTLMISRTPEVTCVVVDVSHEDPEVKFNWYVDGVEVHNAKTKPREEQYNSTYRVVSVLTVLHQDWLNGKEYKCKVSNKALPAPIEKTISKAKGQPREPQVYTLPPSWDEPWGEDVSLTCLVKGFYPSDIAVEWESNGIPEWNYKTTPPVLDSDGSFFLYSKLTVPYDRWVWPDEFSCSVMHEALHNHYTQKSLSLSPG light: DVVMTQTPLSLPVSLGDQASISCRSSQSLVHSNGNTYLRWYLQKPGQSPKVLIYKVSNRFSGVPDRFSGSGSGTDFTLKISRVEAEDLGVYFCSQSTHVPWTFGGGTKLEIKRTVAAPSVFIFPPSDEQLKSGTASVVCLLNNFYPREAKVQWKVDNALQSGNSQESVTEQDSKDSTYSLSSTLTLSKADYEKHKVYACEVTHQGLSSPVTKSFNRGEC | 0.7 RU | -0.9 RU | -10 RU | -8.5 RU |  | 0.5 nM | 
control anti-human LAG-3 mAb 25F7 (antibody, human IgG1, kappa, L234A L235A, V domains shown, also called benchmark anti-human LAG-3 mAb) VH: QVQLQQWGAGLLKPSETLSLTCAVYGGSFSDYYWNWIRQPPGKGLEWIGEINHRGSTNSNPSLKSRVTLSLDTSKNQFSLKLRSVTAADTAVYYCAFGYSDYEYNWFDPWGQGTLVTVSS VL: EIVLTQSPATLSLSPGERATLSCRASQSISSYLAWYQQKPGQAPRLLIYDASNRATGIPARFSGSGSGTDFTLTISSLEPEDFAVYYCQQRSNWPLTFGQGTNLEIKR |  |  |  |  |  |  | no binding
